Patent US20210373004A1 (BIOASTER, published 2021)

Experiments:
[1] = molecular target: T1, Flag-mCherry-ColErw-Cys-6His (Pectobacterium carotovorum); experiment: EIA 8 plex n° 1: colicin coated at 100 nM, Im-RLuc8 alone at 100 nM, luciferase signal (FIG. 3, light grey bars)
[2] = molecular target: T2, Flag-mCherry-ColLeaf-Cys-6His (Pseudomonas sp Leaf83); experiment: EIA 8 plex n° 2: colicin coated at 100 nM, Im-RLuc8 at 100 nM, luminescence; light bar alone, dark bar with the 7 other unfused Im proteins
[3] = molecular target: T1, Flag-mCherry-ColErw-Cys-6His; experiment: EIA 8 plex n° 2: colicin coated at 100 nM, Im-RLuc8 alone at 100 nM, luciferase signal (FIG. 4, light grey bars)
Flag-EmGFP-ColE7-6His [4] = molecular target: T3, Flag-EmGFP-ColE7-6His (Escherichia coli); experiment: EIA 8 plex n° 1: colicin coated at 100 nM, Im-RLuc8 at 100 nM, luminescence; light bar alone, dark bar with the 7 other unfused Im proteins
T3 construct: also called Colicin E7

Flag-mCherry-ColE9-6His [5] = molecular target: T4, Flag-mCherry-ColE9-6His (Escherichia coli); experiment: as above
T4 construct: also called Colicin E9

[6] = molecular target: T5, Flag-mCherry-ColSyr-Cys-6His (Pseudomonas syringae B728A); experiment: as above
[7] = molecular target: T6, Flag-mCherry-ColKhan-Cys-6His (Photorhabdus khanii); experiment: as above
Flag-mCherry-ColE8-6His = molecular target: T7, Flag-mCherry-ColE8-6His (Escherichia coli); experiment: as above
T7 construct: also called Colicin E8

Flag-EmGFP-ColE2-6His [8] = molecular target: T8, Flag-EmGFP-ColE2-6His (Escherichia coli); experiment: as above
T8 construct: Coated on the plate or sprayed on the membrane; also called Colicin E2

[9] = molecular target: T9, Flag-mCherry-ColAP41-Cys-6His (Pseudomonas aeruginosa AP41); experiment: as above
[10] = molecular target: T5, Flag-mCherry-ColSyr-Cys-6His; experiment: EIA 8 plex n° 1: colicin coated at 100 nM, Im-RLuc8 alone at 100 nM, luciferase signal (FIG. 3, light grey bars)
Flag-EmGFP-ColE7-6His [11] = molecular target: T3, Flag-EmGFP-ColE7-6His; experiment: EIA 8 plex n° 1: colicin coated at 100 nM, Im-RLuc8 alone at 100 nM, luciferase signal
[12] = molecular target: T6, Flag-mCherry-ColKhan-Cys-6His; experiment: EIA 8 plex n° 2: colicin coated at 100 nM, Im-RLuc8 at 100 nM, luminescence; light bar alone, dark bar with the 7 other unfused Im proteins
[13] = molecular target: T5, Flag-mCherry-ColSyr-Cys-6His; experiment: EIA 8 plex n° 2: colicin coated at 100 nM, Im-RLuc8 alone at 100 nM, luciferase signal (FIG. 4, light grey bars)
[14] = molecular target: T1, Flag-mCherry-ColErw-Cys-6His; experiment: EIA 8 plex n° 1: colicin coated at 100 nM, Im-RLuc8 at 100 nM, luminescence; light bar alone, dark bar with the 7 other unfused Im proteins
Flag-mCherry-ColE9-6His [15] = molecular target: T4, Flag-mCherry-ColE9-6His; experiment: EIA 8 plex n° 2: colicin coated at 100 nM, Im-RLuc8 at 100 nM, luminescence; light bar alone, dark bar with the 7 other unfused Im proteins
[16] = molecular target: T5, Flag-mCherry-ColSyr-Cys-6His; experiment: as above
[17] = molecular target: T1, Flag-mCherry-ColErw-Cys-6His; experiment: as above
Flag-EmGFP-ColE2-6His [18] = molecular target: T8, Flag-EmGFP-ColE2-6His; experiment: as above
[19] = molecular target: T9, Flag-mCherry-ColAP41-Cys-6His; experiment: as above
[20] = molecular target: T2, Flag-mCherry-ColLeaf-Cys-6His; experiment: EIA 8 plex n° 2: colicin coated at 100 nM, Im-RLuc8 alone at 100 nM, luciferase signal (FIG. 4, light grey bars)
[21] = molecular target: T6, Flag-mCherry-ColKhan-Cys-6His; experiment: EIA 8 plex n° 1: colicin coated at 100 nM, Im-RLuc8 alone at 100 nM, luciferase signal (FIG. 3, light grey bars)
[22] = molecular target: T1, Flag-mCherry-ColErw-Cys-6His; experiment: EIA 8 plex n° 1: colicin coated at 100 nM, Im-RLuc8 alone at 100 nM, luciferase signal
[23] = molecular target: T6, Flag-mCherry-ColKhan-Cys-6His; experiment: EIA 8 plex n° 2: colicin coated at 100 nM, Im-RLuc8 alone at 100 nM, luciferase signal (FIG. 4, light grey bars)

| Binder | binding result [2] | binding result (Flag-EmGFP-ColE7-6His [4]) | binding result (Flag-mCherry-ColE9-6His [5]) | binding result [6] | binding result (Flag-mCherry-ColE8-6His) | binding result (Flag-EmGFP-ColE2-6His [8]) | binding result [9] | binding result [12] | further results |
| --- | --- | --- | --- | --- | --- | --- | --- | --- | --- |
| Myc-RLuc8-ImErw-Avitag-6His (other, Immunity protein fused to the luciferase RLuc8 as reporter; added in solution; also called ImErw-Rluc8) MGGEQKLISEEDLGGSASKVYDPEQRKRMITGPQWWARCKQMNVLDSFINYYDSEKHAENAVIFLHGNATSSYLWRHVVPHIEPVARCIIPDLIGMGKSGKSGNGSYRLLDHYKYLTAWFELLNLPKKIIFVGHDWGAALAFHYAYEHQDRIKAIVHMESVVDVIESWDEWPDIEEDIALIKSEEGEKMVLENNFFVETVLPSKIMRKLEPEEFAAYLEPFKEKGEVRRPTLSWPREIPLVKGGKPDVVQIVRNYNAYLRASDDLPKLFIESDPGFFSNAIVEGAKKFPNTEFVKVKGLHFLQEDAPDEMGKYIKSFVERVLKNEQKLPGGSNLKEKLEDYTEAEFISYLKEFFDNPMGLRGKELETHLDSLVEHFDKIVFHPEGNGLIFYPPDERDDSPEGVLNEIKRWRKSQGLPLFKDSKGGSGGSGLNDIFEAQKIEWHELEGGGSHHHHHH | no binding (tested: 100 nM) | no binding (tested: 100 nM) | no binding (tested: 100 nM) | no binding (tested: 100 nM) | no binding (tested: 100 nM) | no binding (tested: 100 nM) | no binding (tested: 100 nM) | – | RLU [1]: > 2e+06 RLU; RLU [3]: > 2.4e+06 RLU; binding result [7]: binds |
| Myc-RLuc8-ImSyr-Avitag-6His (other, Immunity protein fused to the luciferase RLuc8 as reporter; added in solution; also called ImSyr-Rluc8) MGGEQKLISEEDLGGSASKVYDPEQRKRMITGPQWWARCKQMNVLDSFINYYDSEKHAENAVIFLHGNATSSYLWRHVVPHIEPVARCIIPDLIGMGKSGKSGNGSYRLLDHYKYLTAWFELLNLPKKIIFVGHDWGAALAFHYAYEHQDRIKAIVHMESVVDVIESWDEWPDIEEDIALIKSEEGEKMVLENNFFVETVLPSKIMRKLEPEEFAAYLEPFKEKGEVRRPTLSWPREIPLVKGGKPDVVQIVRNYNAYLRASDDLPKLFIESDPGFFSNAIVEGAKKFPNTEFVKVKGLHFLQEDAPDEMGKYIKSFVERVLKNEQKLPGGSIFKEKIEDYTEEEFLEFLKGLSSEYSQLHGDEFIKHMDRSVEHFVKITEHPAQTDVIFYPEEGQEDTPEGILKVIKEWRAKNGKPGFKSGGSGGSGLNDIFEAQKIEWHELEGGGSHHHHHH | no binding (tested: 100 nM) | – | no binding (tested: 100 nM) | – | no binding (tested: 100 nM) | no binding (tested: 100 nM) | – | no binding (tested: 100 nM) | RLU [10]: > 2e+06 RLU; RLU (Flag-EmGFP-ColE7-6His [11]): > 100000 RLU; RLU [13]: > 2.4e+06 RLU; binding result [14]: no binding (tested: 100 nM) |
| Avitag-RLuc8-ImLeaf-6His (other, Immunity protein fused to the luciferase RLuc8 as reporter; added in solution; also called ImLeaf-Rluc8) MGLNDIFEAQKIEWHEGGSGGSGGSASKVYDPEQRKRMITGPQWWARCKQMNVLDSFINYYDSEKHAENAVIFLHGNATSSYLWRHVVPHIEPVARCIIPDLIGMGKSGKSGNGSYRLLDHYKYLTAWFELLNLPKKIIFVGHDWGAALAFHYAYEHQDRIKAIVHMESVVDVIESWDEWPDIEEDIALIKSEEGEKMVLENNFFVETVLPSKIMRKLEPEEFAAYLEPFKEKGEVRRPTLSWPREIPLVKGGKPDVVQIVRNYNAYLRASDDLPKLFIESDPGFFSNAIVEGAKKFPNTEFVKVKGLHFLQEDAPDEMGKYIKSFVERVLKNEQGGGSTAGGGGSKRQFADYTEAEFIAFMEDIFRENEAETDDRLDVLLDQFREITGHPDGTDLIYYCESDAECTPERITQKVKSWRAANGLPGFKSTLEGGGSHHHHHH | – | – | – | – | – | – | – | no binding (tested: 100 nM) | binding result (Flag-mCherry-ColE9-6His [15]): no binding (tested: 100 nM); binding result [16]: no binding (tested: 100 nM); binding result [17]: no binding (tested: 100 nM); binding result (Flag-EmGFP-ColE2-6His [18]): no binding (tested: 100 nM); binding result [19]: no binding (tested: 100 nM); RLU [20]: > 2.4e+06 RLU |
| Avitag-RLuc8-ImKhan-6His (other, Immunity protein fused to the luciferase RLuc8 as reporter; added in solution; also called ImKhan-Rluc8; ImKahn) MGLNDIFEAQKIEWHEGGSGGSGGSASKVYDPEQRKRMITGPQWWARCKQMNVLDSFINYYDSEKHAENAVIFLHGNATSSYLWRHVVPHIEPVARCIIPDLIGMGKSGKSGNGSYRLLDHYKYLTAWFELLNLPKKIIFVGHDWGAALAFHYAYEHQDRIKAIVHMESVVDVIESWDEWPDIEEDIALIKSEEGEKMVLENNFFVETVLPSKIMRKLEPEEFAAYLEPFKEKGEVRRPTLSWPREIPLVKGGKPDVVQIVRNYNAYLRASDDLPKLFIESDPGFFSNAIVEGAKKFPNTEFVKVKGLHFLQEDAPDEMGKYIKSFVERVLKNEQGGGSTAGGGGSELKNKLEDYTEAEFLSLLNKIWAVDVSEEEHDNLIDHFEKLSEHPNGNGLIFYPENGVEDSPEGVLKVIKEWRAKNGKPGFKKLEGGGSHHHHHH | no binding (tested: 100 nM) | no binding (tested: 100 nM) | no binding (tested: 100 nM) | no binding (tested: 100 nM) | no binding (tested: 100 nM) | no binding (tested: 100 nM) | no binding (tested: 100 nM) | – | RLU [21]: > 2e+06 RLU; RLU [22]: > 100000 RLU; RLU [23]: > 2.4e+06 RLU |
